Legend:
IFN-α C [1] = biological target: T1, IFN-α C (human, UniProt P01566 24-189); experiment: cell-based or functional assay
IFN-α F [2] = biological target: T2, IFN-α F (human, UniProt P01568 24-189); experiment: cell-based or functional assay
IFN-α G [3] = biological target: T3, IFN-α G (human, UniProt P01569 24-189); experiment: cell-based or functional assay
IFN-α H2 [4] = biological target: T4, IFN-α H2 (human, UniProt P01570 24-189); experiment: cell-based or functional assay
IFN-α I [5] = biological target: T5, IFN-α I (human, UniProt P01571 24-189); experiment: cell-based or functional assay
T5 sequence (P01571 24-189): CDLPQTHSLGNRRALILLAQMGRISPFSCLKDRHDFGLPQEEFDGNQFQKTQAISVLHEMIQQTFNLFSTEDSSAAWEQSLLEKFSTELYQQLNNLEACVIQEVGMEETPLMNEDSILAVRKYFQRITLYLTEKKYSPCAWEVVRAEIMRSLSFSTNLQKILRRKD

IFN-α J1 [6] = biological target: T6, IFN-α J1 (human, UniProt P01567 24-189); experiment: cell-based or functional assay
T6 sequence (P01567 24-189 limits assumed): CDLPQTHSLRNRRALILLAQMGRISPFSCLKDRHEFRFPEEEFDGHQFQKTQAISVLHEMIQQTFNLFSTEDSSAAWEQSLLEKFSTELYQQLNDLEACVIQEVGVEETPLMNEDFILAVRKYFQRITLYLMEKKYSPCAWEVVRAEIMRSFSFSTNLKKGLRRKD

IFN-α K [7] = biological target: T7, IFN-α K (human, UniProt P05013 24-189); experiment: cell-based or functional assay
T7 sequence (P05013 24-189): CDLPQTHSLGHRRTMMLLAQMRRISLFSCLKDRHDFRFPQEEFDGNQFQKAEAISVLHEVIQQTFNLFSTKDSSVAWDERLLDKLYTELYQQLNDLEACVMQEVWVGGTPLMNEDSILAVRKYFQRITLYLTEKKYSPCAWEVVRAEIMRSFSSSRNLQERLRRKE

IFN-α4a [8] = biological target: T8, IFN-α4a (human, UniProt P05014 24-189, limits assumed); experiment: cell-based or functional assay
T8 sequence (P05014 24-189 limits assumed): as the sequence (P01571 24-189) above, with P26H, L38F, Q40E, N46H, T51A, N95D, M106V, I161R counted along it

IFN-α WA [9] = biological target: T9, IFN-α WA (human, UniProt P05015 24-189); experiment: cell-based or functional assay
T9 sequence (P05015 24-189): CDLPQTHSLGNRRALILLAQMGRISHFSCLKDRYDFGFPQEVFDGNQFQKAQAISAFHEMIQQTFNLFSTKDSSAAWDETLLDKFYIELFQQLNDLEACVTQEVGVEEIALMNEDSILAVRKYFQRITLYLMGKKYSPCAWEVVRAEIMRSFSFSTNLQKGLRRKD

IFN-α C [10] = biological target: T1, IFN-α C; experiment: cell-based or functional assay; remark: listed apart in the source
IFN-α D [11] = biological target: T10, IFN-α D (human, UniProt P0DY56 24-189); experiment: cell-based or functional assay
T10 sequence (P0DY56 entry or part of it limits assumed): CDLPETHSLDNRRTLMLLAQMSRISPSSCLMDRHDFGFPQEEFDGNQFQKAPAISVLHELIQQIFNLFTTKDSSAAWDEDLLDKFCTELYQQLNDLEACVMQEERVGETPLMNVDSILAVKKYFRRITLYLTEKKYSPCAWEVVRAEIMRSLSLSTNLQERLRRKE

IFN-α F [12] = biological target: T2, IFN-α F; experiment: cell-based or functional assay; remark: listed apart in the source
IFN-α G [13] = biological target: T3, IFN-α G; experiment: cell-based or functional assay; remark: listed apart in the source
IFN-α H2 [14] = biological target: T4, IFN-α H2; experiment: cell-based or functional assay; remark: listed apart in the source
IFN-α I [15] = biological target: T5, IFN-α I; experiment: cell-based or functional assay; remark: listed apart in the source
IFN-α J1 [16] = biological target: T6, IFN-α J1; experiment: cell-based or functional assay; remark: listed apart in the source
IFN-α K [17] = biological target: T7, IFN-α K; experiment: cell-based or functional assay; remark: listed apart in the source
IFN-α4a [18] = biological target: T8, IFN-α4a; experiment: cell-based or functional assay; remark: listed apart in the source
IFN-α WA [19] = biological target: T9, IFN-α WA; experiment: cell-based or functional assay; remark: listed apart in the source
IFN-β = IFN-β (human, UniProt P01574 22-187); experiment: cell-based or functional assay
IFN-β, sequence (P01574 22-187 limits assumed): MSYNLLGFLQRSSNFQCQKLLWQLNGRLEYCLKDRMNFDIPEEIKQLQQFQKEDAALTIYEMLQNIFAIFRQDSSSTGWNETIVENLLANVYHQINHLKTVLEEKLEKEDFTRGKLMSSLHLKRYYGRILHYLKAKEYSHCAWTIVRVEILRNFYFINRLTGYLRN

IFN-α C [20] = biological target: T1, IFN-α C; experiment: cell-based or functional assay; remark: listed apart in the source
IFN-α D [21] = biological target: T10, IFN-α D; experiment: cell-based or functional assay; remark: listed apart in the source
IFN-α F [22] = biological target: T2, IFN-α F; experiment: cell-based or functional assay; remark: listed apart in the source
IFN-α G [23] = biological target: T3, IFN-α G; experiment: cell-based or functional assay; remark: listed apart in the source
IFN-α H2 [24] = biological target: T4, IFN-α H2; experiment: cell-based or functional assay; remark: listed apart in the source
IFN-α I [25] = biological target: T5, IFN-α I; experiment: cell-based or functional assay; remark: listed apart in the source
IFN-α J1 [26] = biological target: T6, IFN-α J1; experiment: cell-based or functional assay; remark: listed apart in the source
IFN-α K [27] = biological target: T7, IFN-α K; experiment: cell-based or functional assay; remark: listed apart in the source
IFN-α4a [28] = biological target: T8, IFN-α4a; experiment: cell-based or functional assay; remark: listed apart in the source
IFN-α WA [29] = biological target: T9, IFN-α WA; experiment: cell-based or functional assay; remark: listed apart in the source
IFN-α D [30] = biological target: T10, IFN-α D; experiment: ELISA, IFN subtype coated
Description: Solid-phase binding of all 15 IFNα subtypes was evaluated for screening of MAb specificity by ELISA assay. Briefly, 50 μl/well of 1 μg/ml of a recombinant IFNα protein subtype were coated overnight at 4° C. on ELISA plates (NUNC MaxiSorp™) plates. Coated plates were blocked with PBS+1% BSA and incubated with 50 μl of 25 ng ACO candidate MAb in PBS for 1 hour at 37° C. The assays were developed by incubation with 50 μl/well of an HRP conjugated goat anti-mouse-IgG (Jackson ImmunoResearch) at room temperature for 30 minutes followed by incubation with 100 μl/well of TMB substrate solution (Zymed) for 15 minutes. The reaction was stopped with 100 μl/well of 1 N HCl and read at OD₄₅₀ on an ELISA plate reader.

leukocyte IFN (Sigma) = experiment: cell-based or functional assay

T2 sequence (P01568 24-189): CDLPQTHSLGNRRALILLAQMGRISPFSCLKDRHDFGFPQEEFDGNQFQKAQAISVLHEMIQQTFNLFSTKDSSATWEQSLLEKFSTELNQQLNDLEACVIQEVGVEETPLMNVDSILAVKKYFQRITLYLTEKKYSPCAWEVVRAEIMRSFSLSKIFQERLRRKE
T4 sequence (P01570 24-189): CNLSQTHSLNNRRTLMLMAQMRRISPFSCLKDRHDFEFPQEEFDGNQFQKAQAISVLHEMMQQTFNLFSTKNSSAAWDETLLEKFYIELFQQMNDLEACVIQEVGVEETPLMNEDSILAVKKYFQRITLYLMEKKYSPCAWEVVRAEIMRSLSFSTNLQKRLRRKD
T3 sequence (P01569 24-189): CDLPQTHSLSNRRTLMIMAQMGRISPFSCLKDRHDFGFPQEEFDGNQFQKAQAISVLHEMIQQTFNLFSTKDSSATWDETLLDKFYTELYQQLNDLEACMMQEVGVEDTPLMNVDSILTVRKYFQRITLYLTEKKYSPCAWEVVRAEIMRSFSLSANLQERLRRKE
T1 sequence (P01566 24-189): as the sequence (P01571 24-189) above, with A19G, G37R, L38I, T51A, N95D, M106V, T132I, K134R, I161R counted along it

B1: ACO-1 (antibody, V domains shown)
VH: QVQLQQPGAELVKPGASVKLSCKASGYTFTNYWMHWVKQRPGQGLEWIGEINPSHGRTIYNENFKSKATLTVDKSSITAFMQLSSLTSEDSAVYFCARGGLGPAWFAYWGQGTLVTVSA
VL: QIVLTQSPAIMSASPGEKVTLTCSAGSSVDSSYLYWYQQKPGSSPKLWIYSTSNLASGVPARFSGSGSGTSYSLTISSMEAEDAASYFCHQWSSYPFTFGSGTKLEIKR
notes: also called ACO-1 monoclonal antibody; hybridoma ATCC PTA-6557
IFN-α C [1]
  EC50 of neutralization, RG bioassay: 0.00056 µg/mL
IFN-α F [2]
  EC50 of neutralization, RG bioassay: 0.146 µg/mL
IFN-α G [3]
  EC50 of neutralization, RG bioassay: 0.0271 µg/mL
IFN-α H2 [4]
  EC50 of neutralization, RG bioassay: 0.153 µg/mL
IFN-α I [5]
  EC50 of neutralization, RG bioassay: 0.0135 µg/mL
IFN-α J1 [6]
  EC50 of neutralization, RG bioassay: 0.168 µg/mL
IFN-α K [7]
  EC50 of neutralization, RG bioassay: 0.235 µg/mL
IFN-α4a [8]
  EC50 of neutralization, RG bioassay: 0.00211 µg/mL
IFN-α WA [9]
  EC50 of neutralization, RG bioassay: 0.0848 µg/mL
IFN-α C [10]
  percentage neutralization, RG assay: 91.4%
IFN-α D [11]
  percentage neutralization, RG assay: 12.5%
IFN-α F [12]
  percentage neutralization, RG assay: 83.7%
IFN-α G [13]
  percentage neutralization, RG assay: 92.7%
IFN-α H2 [14]
  percentage neutralization, RG assay: 77.5%
IFN-α I [15]
  percentage neutralization, RG assay: 87.1%
IFN-α J1 [16]
  percentage neutralization, RG assay: 83.9%
IFN-α K [17]
  percentage neutralization, RG assay: 77.9%
IFN-α4a [18]
  percentage neutralization, RG assay: 67.8%
IFN-α WA [19]
  percentage neutralization, RG assay: 86.9%
IFN-β
  percentage neutralization, RG assay: 9%
IFN-α C [20]
  percentage neutralization, CPE assay: 99.4%
IFN-α D [21]
  percentage neutralization, CPE assay: 33%
IFN-α F [22]
  percentage neutralization, CPE assay: 96.6%
IFN-α G [23]
  percentage neutralization, CPE assay: 99%
IFN-α H2 [24]
  percentage neutralization, CPE assay: 95.9%
IFN-α I [25]
  percentage neutralization, CPE assay: 98%
IFN-α J1 [26]
  percentage neutralization, CPE assay: 98.1%
IFN-α K [27]
  percentage neutralization, CPE assay: 98.3%
IFN-α4a [28]
  percentage neutralization, CPE assay: 82.9%
IFN-α WA [29]
  percentage neutralization, CPE assay: 88.7%
IFN-α D [30]
  binding result: no binding (tested: <2-fold over matched controls; 25 ng MAb)
Leukocyte IFN (Sigma)
  neutralization of 600 pg leukocyte IFN, RG bioassay: > 50%

From patent US20090214565A1 (BAYLOR RESEARCH INSTITUTE, published 2009)
